Key:
[1] = test system: NeuN+ve hilar neurons of the dentate gyrus; assay: NeuN staining of hilar neurons of the dentate gyrus 7 days post-TBI; assay type: in vivo, mouse
From the text: (§1) The mouse controlled cortical impact (CCI) injury model was used as previously described. In brief, mice were anesthetized with 5% isoflurane and 1:1 O2:N2 mixture. Animals were mounted on a stereotaxic frame and were secured by ear bars and an incisor bar. Anesthesia was maintained with 2.0% isoflurane and 1:1 O2:N2 mixture. A 5-mm-diameter craniotomy was made midway between bregma and lambda on the right side, with the medial edge of the craniotomy 1 mm lateral to midline. Injury was produced using a magnetic impactor mounted at an angle of 110° from the vertical plane. A single impact at a velocity of 4+/−0.2 m/s was used inflict a moderate to severe injury (1.2-1.3 mm impact depth). After injury, the incision was closed. Sham animals underwent identical surgeries except for impact injury. Core body temperature was monitored using a rectal thermometer and maintained at 36.8° C.-37.2° C. with a heating pad throughout the procedure. For treatments, TIMP3 (60.0 μg/kg) or vehicle control (PBS) administration was performed at 2, 24, and 48 hrs after injury via tail vein injections in a total volume of 125 μl. Animal research was performed with approval of the Institutional Animal Care and Use Committee at ISIS Services LLC (San Carlos, Calif., USA). […]

[2] = test system: S6 Ribosomal Protein (S235/236) in primary hippocampal neurons; assay: S6 Ribosomal Protein (S235/236) phosphorylation in primary hippocampal neurons; assay type: cell-based, mouse; conditions: 1 μg/ml TIMP3, 15 mins
Experimental: (§2) SH-SY5Y cells were obtained from ATCC (Cat# CRL-2266, Manassas, Va.) and were cultured in DMEM and 10% FBS up to passage 10. For differentiation of SH-SY5Y cells into a neuronal phenotype, cells were first plated in DMEEM+10% FBS for 24 hrs before exchanging media in DMEM+1% FBS 10 μM retinoic acid. Differentiation was performed for 3 days before experimentation. Hippocampal neurons were prepared according to the protocol by Beaudoin et al. (Nature Protocols 2012; 7(9):1741-1754) with minor modifications. In brief, after trypsin digestion of hippocampi isolated from P1 mouse pups single cell suspensions was created by trituration and plated onto Biocoat™ poly-D-lysine coated 12-well plates (Cat#354470, BD Biosciences, San Jose, Calif.). […]
Pathscan Antibody™ array kits were purchased from Cell Signaling Technologies (Danvers, Mass.). PathScan® RTK signaling antibody array kit (Fluorescent Readout, Cat#7949) and PathScan™ Akt signaling antibody array kit (Fluorescent Readout, Cat#9700) were performed as per manufacturer's instructions. Imaging was performed on a LI-COR Odyssey™ infrared scanner and pixel densities measured by in house LI-COR Image™ suite software. […]
Lysates was analyzed in conjuncture with the LI-COR Odyssey™ infra-red imaging system. […] After further wash steps images were obtained using a LI-COR™ Odyssey scanner and quantified using LI-COR™ Image Studio software. […]

[3] = test system: β3-tubulin / dendritic branches in the molecular layer of the dentate gyrus; assay: β3-tubulin western blot and staining of ipsilateral hippocampus 7 days post-TBI; assay type: in vivo, mouse; conditions: TIMP3 60 μg/kg IV x3; day 7 post-TBI
From the text: as §1

[4] = test system: phospho-Akt (Ser473) in hippocampal homogenates; assay: Hippocampal phospho-Akt western blot 3 days post-TBI; assay type: in vivo, mouse
From the text: as §1, with “Sham animals underwent identical surgeries except for impact injury.” left out, “procedure.” for “procedure. For treatments, TIMP3 (60.0 μg/kg) or vehicle control (PBS) administration was performed at 2, 24, and 48 hrs after injury via tail vein injections in a total volume of 125 μl. Animal research was performed with approval of the Institutional Animal Care and Use Committee at ISIS Services LLC (San Carlos, Calif., USA).”
Cell lysates for western blotting were prepared with RIPA buffer (Cat#89900. Thermofisher Scientific, Rockford, Ill.) supplemented with phosphatase inhibitor cocktail 2 (Cat# P5726. Sigma, St Louis, Mo.), phosphatase inhibitor cocktail 3 (Cat# P0044. Sigma, St Louis, Mo.) and complete protease inhibitor (Cat#1862209. Thermofisher Scientific, Rockford, Ill.). […] Protein content was quantified with a Pierce BCA protein assay kit per manufacturer's instructions (Cat#23225. Thermofisher Scientific, Rockford, Ill.). […]

SH-SY5Y cells = assay: Colorimetric neurite outgrowth assay; assay type: cell-based, human; conditions: 1 μg/ml TIMP3, 48 hrs
Experimental: Neurite Outgrowth Assay Kit™ 3 μm (Cat# NS220) and AXIS™ Axon Isolation Devices, 150 μm, Plasma Bonded chamber slides (Cat# AX15005PB) were purchased from (EMD Millipore, Billerica, Mass.). For neurite outgrowth assays SH-SY5Y cells were initially differentiated for 24 hrs at a density of 4×10^5 cells per well of a 6-well plate. Cells were then dissociated using kit supplied dissociation buffer and 3×10^5 cells were replated onto transwell inserts. […] Assay was conducted per manufacturer's instructions.

[5] = test system: S6 Ribosomal Protein (S235/236) in SH-SY5Y cells; assay: S6 Ribosomal Protein (S235/236) phosphorylation in SH-SY5Y cells; assay type: cell-based, human; conditions: 1 μg/ml TIMP3, 15 mins
Experimental: as §2, with “Calif.). 2 pups were used per well and cell suspensions were incubated for 10 minutes per well for a total of 6 wells. The serial incubation allowed for variation in cell densities applicable to different experiments but also contributed to the reduction in non-neuronal cells.” for “Calif.).”
Pathscan Antibody™ array kits were purchased from Cell Signaling Technologies (Danvers, Mass.). PathScan® RTK signaling antibody array kit (Fluorescent Readout, Cat#7949) and PathScan™ Akt signaling antibody array kit (Fluorescent Readout, Cat#9700) were performed as per manufacturer's instructions. Imaging was performed on a LI-COR Odyssey™ infrared scanner and pixel densities measured by in house LI-COR Image™ suite software.
Cell lysates for western blotting were prepared with RIPA buffer (Cat#89900. Thermofisher Scientific, Rockford, Ill.) supplemented with phosphatase inhibitor cocktail 2 (Cat# P5726. Sigma, St Louis, Mo.), phosphatase inhibitor cocktail 3 (Cat# P0044. Sigma, St Louis, Mo.) and complete protease inhibitor (Cat#1862209. Thermofisher Scientific, Rockford, Ill.). […] Protein content was quantified with a Pierce BCA protein assay kit per manufacturer's instructions (Cat#23225. Thermofisher Scientific, Rockford, Ill.).
Lysates was analyzed in conjuncture with the LI-COR Odyssey™ infra-red imaging system. […]

B1: TIMP3: Recombinant tissue inhibitor of matrix metalloproteinase-3, a soluble protein released by MSCs, obtained from Amgen Inc. (protein)
chain: CTCSPSHPQDAFCNSDIVIRAKVVGKKLVKEGPFGTLVYTIKQMKMYRGFTKMPHVQYIHTEASESLCGLKLEVNKYQYLLTGRVYDGKMYTGLCNFVERWDQLTLSQRKGLNYRYHLGCNCKIKSCYYLPCFVTSKNECLWTDMLSNFGYPGYQSKHYACIRQKGGYCSWYRGWAPPDKSIINATDP
NeuN staining, contralateral side [1]: no significant differences on the contralateral side | NeuN+ve neurons in the hilus, ipsilateral ([1]; IV TIMP3 vs TBI): significantly attenuated the loss of NeuN+ve cells | S6 Ribosomal Protein (S235/236) activation, western blot [2]: activates S6 Ribosomal Protein (S^235/236) | S6 Ribosomal Protein (S235/236) phosphorylation, antibody array [2]: phosphorylates mTORC1 pathway target S6 Ribosomal Protein (S^235/236) | number of β3-tubulin+ve dendritic branches >50 μm in the molecular layer [3]: attenuated by TIMP3 treatment | β3-tubulin protein in ipsilateral hippocampus, western blot [3]: attenuated by TIMP3 treatment | phospho-Akt (Ser473) in ipsilateral hippocampal homogenates ([4]; TIMP3 60 μg/kg IV x3, day 3, 1 hr after last injection, vs TBI alone): significantly elevates | Phospho-Akt (Ser473) in contralateral hippocampal homogenates ([4]; day 3): No differences were observed | neurite outgrowth (colorimetric) (SH-SY5Y cells): promotes increased neurite outgrowth | S6 Ribosomal Protein (S235/236) activation, western blot [5]: activates S6 Ribosomal Protein (S^235/236) | S6 Ribosomal Protein (S235/236) phosphorylation, antibody array [5]: phosphorylates mTORC1 pathway target S6 Ribosomal Protein (S^235/236)

From patent publication US20150359847A1, “METHOD AND COMPOSITION FOR CONFERRING NEUROPROTECTION” (BLOOD SYSTEMS RESEARCH INSTITUTE, priority 2014, published 2015)
